Biological target: T1, HIS-RECQ4 (full length, recombinant) (human, UniProt O94761 1-1208)
T1 construct: RECQ4; full length construct, a gift from Dr Yilun Liu; the construct itself is not described; also called H-R4; source: E. coli Rosetta pLysS, purified (HQ sepharose flow-through, PEI, HiTrap HP with imidazole, FLAG M2 beads)
T1 sequence (looked up): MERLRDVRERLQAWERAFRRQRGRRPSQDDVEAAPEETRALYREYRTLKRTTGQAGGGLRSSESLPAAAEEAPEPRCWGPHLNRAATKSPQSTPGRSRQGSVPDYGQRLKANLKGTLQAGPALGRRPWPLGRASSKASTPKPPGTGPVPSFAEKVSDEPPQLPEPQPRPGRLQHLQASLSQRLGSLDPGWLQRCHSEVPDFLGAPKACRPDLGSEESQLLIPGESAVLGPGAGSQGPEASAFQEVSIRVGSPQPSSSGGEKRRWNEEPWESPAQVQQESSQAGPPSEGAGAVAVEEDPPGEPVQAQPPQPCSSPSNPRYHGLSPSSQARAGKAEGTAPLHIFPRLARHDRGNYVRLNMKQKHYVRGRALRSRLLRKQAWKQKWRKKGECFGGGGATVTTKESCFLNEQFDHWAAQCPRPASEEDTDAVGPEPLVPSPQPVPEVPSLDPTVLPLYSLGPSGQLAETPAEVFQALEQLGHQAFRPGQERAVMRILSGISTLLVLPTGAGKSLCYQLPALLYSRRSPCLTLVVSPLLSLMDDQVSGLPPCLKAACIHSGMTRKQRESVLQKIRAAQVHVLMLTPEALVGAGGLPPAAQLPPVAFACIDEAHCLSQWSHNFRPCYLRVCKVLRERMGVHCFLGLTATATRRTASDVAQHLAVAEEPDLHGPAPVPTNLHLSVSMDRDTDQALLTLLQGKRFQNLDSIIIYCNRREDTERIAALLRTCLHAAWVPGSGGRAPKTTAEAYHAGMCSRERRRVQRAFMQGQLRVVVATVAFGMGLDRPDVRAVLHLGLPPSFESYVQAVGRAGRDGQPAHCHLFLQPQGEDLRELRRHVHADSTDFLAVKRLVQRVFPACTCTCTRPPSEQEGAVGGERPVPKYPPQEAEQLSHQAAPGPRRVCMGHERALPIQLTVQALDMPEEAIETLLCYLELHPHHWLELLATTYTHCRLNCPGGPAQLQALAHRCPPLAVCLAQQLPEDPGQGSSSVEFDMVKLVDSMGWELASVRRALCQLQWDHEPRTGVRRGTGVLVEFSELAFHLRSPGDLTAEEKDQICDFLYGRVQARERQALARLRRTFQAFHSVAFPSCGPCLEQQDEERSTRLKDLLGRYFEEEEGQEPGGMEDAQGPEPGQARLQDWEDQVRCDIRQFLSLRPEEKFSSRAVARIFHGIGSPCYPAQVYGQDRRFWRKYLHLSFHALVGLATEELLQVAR
Experiment: SPR; BIAcore T100, 25°C; GST-MCM10 amine-coupled to a CM3 chip (500 response units); RECQ4 as analyte at 1, 0.5, 0.25, 0.125, 0.06 and 0.03 μM; flow 30 and 60 μl/min; HBS buffer (10 mM HEPES pH 7.4, 150 mM NaCl, 0.5 mM TCEP, 0.05% Tween20); global fit to a two state model
Conditions: both partners purified

B1: GST-MCM10 (natural protein, human, UniProt Q7L590 1-875, looked up)
chain: MDEEEDNLSLLTALLEENESALDCNSEENNFLTRENGEPDAFDELFDADGDGESYTEEADDGETGETRDEKENLATLFGDMEDLTDEEEVPASQSTENRVLPAPAPRREKTNEELQEELRNLQEQMKALQEQLKVTTIKQTASPARLQKSPVEKSPRPPLKERRVQRIQESTCFSAELDVPALPRTKRVARTPKASPPDPKSSSSRMTSAPSQPLQTISRNKPSGITRGQIVGTPGSSGETTQPICVEAFSGLRLRRPRVSSTEMNKKMTGRKLIRLSQIKEKMAREKLEEIDWVTFGVILKKVTPQSVNSGKTFSIWKLNDLRDLTQCVSLFLFGEVHKALWKTEQGTVVGILNANPMKPKDGSEEVCLSIDHPQKVLIMGEALDLGTCKAKKKNGEPCTQTVNLRDCEYCQYHVQAQYKKLSAKRADLQSTFSGGRIPKKFARRGTSLKERLCQDGFYYGGVSSASYAASIAAAVAPKKKIQTTLSNLVVKGTNLIIQETRQKLGIPQKSLSCSEEFKELMDLPTCGARNLKQHLAKATASGIMGSPKPAIKSISASALLKQQKQRMLEMRRRKSEEIQKRFLQSSSEVESPAVPSSSRQPPAQPPRTGSEFPRLEGAPATMTPKLGRGVLEGDDVLFYDESPPPRPKLSALAEAKKLAAITKLRAKGQVLTKTNPNSIKKKQKDPQDILEVKERVEKNTMFSSQAEDELEPARKKRREQLAYLESEEFQKILKAKSKHTGILKEAEAEMQERYFEPLVKKEQMEEKMRNIREVKCRVVTCKTCAYTHFKLLETCVSEQHEYHWHDGVKRFFKCPCGNRSISLDRLPNKHCSNCGLYKWERDGMLKEKTGPKIGGETLLPRGEEHAKFLNSLK
notes: MCM10, human; construct pGEX-4T-1-MCM10, a gift from Dr. Yilun Liu; also called G-M10; pGEX-4T-1-MCM10; source: E. coli, purified on GSH beads (kept on the beads for pull-downs; eluted with reduced glutathione for the peptide array)
- Kd: 170 ± 200 nM
